Measurements published in US20070072239A1 (Pfizer, published 2007).
Changes are numbered by the printed parent chain. Each block holds one binder with its values, some of them ahead of it.

Target: T1, Wnt3 (human, UniProt P56703 22-355 at identity 1.00), limits assumed)
T1 chain: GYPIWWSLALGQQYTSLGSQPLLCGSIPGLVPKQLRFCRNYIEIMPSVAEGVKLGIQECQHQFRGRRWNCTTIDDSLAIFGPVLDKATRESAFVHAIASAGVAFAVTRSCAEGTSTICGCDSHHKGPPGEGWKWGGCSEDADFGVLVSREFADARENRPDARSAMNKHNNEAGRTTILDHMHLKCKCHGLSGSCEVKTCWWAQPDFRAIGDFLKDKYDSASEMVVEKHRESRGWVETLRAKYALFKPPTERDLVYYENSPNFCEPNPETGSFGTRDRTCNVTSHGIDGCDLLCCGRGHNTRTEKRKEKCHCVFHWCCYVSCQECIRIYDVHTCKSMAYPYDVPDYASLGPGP
Assay: cell-based or functional assay

loss of Wnt inhibitory function relative to SFRP-1 (TCF-Luciferase reporter) (% loss of function): 30
B1: 3' His tagged SFRP-1 (receptor)
chain: SEYDYVSFQSDIGPYQSGRFYTKPPQCVDIPADLRLCHNVGYKKMVLPNLLEHETMAEVKQQASSWVPLLNKNCHAGTQVFLCSLFAPVCLDRPIYPCRWLCEAVRDSCEPVMQFFGFYWPEMLKCDKFPEGDVCIAMTPPNATEASKPQGTTVCPPCDNELKSEAIIEHLCASEFALRMKIKEVKKENGDKKIVPKKKKPLKLGPIKKKDLKKLVLYLKNGADCPCHQLDNLSHHFLIMGRKVKSQYLLTAIHKWDKKNKEFKNFMKKMKNHECPTFQSVFKHHHHHH

Wnt3 inhibitory activity relative to SFRP-1 (TCF-Luciferase reporter): ~20 % of SFRP-1 activity
loss of Wnt3 antagonist activity relative to SFRP-1 (TCF-Luciferase reporter): ~70 % loss of activity
B2: SFRP-1/SFRP-2(1-295/285-295) chimera (receptor)
chain: SEYDYVSFQSDIGPYQSGRFYTKPPQCVDIPADLRLCHNVGYKKMVLPNLLEHETMAEVKQQASSWVPLLNKNCHAGTQVFLCSLFAPVCLDRPIYPCRWLCEAVRDSCEPVMQFFGFYWPEMLKCDKFPEGDVCIAMTPPNATEASKPQGTTVCPPCDNELKSEAIIEHLCASEFALRMKIKEVKKENGDKKIVPKKKKPLKLGPIKKKDLKKLVLYLKNGADCPCHQLDNLSHHFLIMGRKVKSQYLLTAIHKWDKKNKEFKRISRSIRKLQC

inhibition of Wnt3-mediated upregulation of the 16xTCF-Luciferase activity, relative to SFRP-1 (% less active): 25
B3: human SFRP-2 (receptor)
chain: LFLFGQPDFSYKRSNCKPIPANLQLCHGIEYQNMRLPNLLGHETMKEVLEQAGAWIPLVMKQCHPDTKKFLCSLFAPVCLDDLDETIQPCHSLCVQVKDRCAPVMSAFGFPWPDMLECDRFPQDNDLCIPLASSDHLLPATEEAPKVCEACKNKNDDDNDIMETLCKNDFALKIKVKEITYINRDTKIILETKSKTIYKLNGVSERDLKKSVLWLKDSLQCTCEEMNDINAPYLVMGQKQGGELVITSVKRWQKGQREFKRISRSIRKLQC

inhibition of the Wnt-mediated upregulation of the 16xTCF-Luciferase reporter in U2OS cells: 90 % inhibition
B4: hOB SFRP-1 (human osteoblast secreted frizzled-related protein-1), wild-type full length (receptor)
chain: SEYDYVSFQSDIGPYQSGRFYTKPPQCVDIPADLRLCHNVGYKKMVLPNLLEHETMAEVKQQASSWVPLLNKNCHAGTQVFLCSLFAPVCLDRPIYPCRWLCEAVRDSCEPVMQFFGFYWPEMLKCDKFPEGDVCIAMTPPNATEASKPQGTTVCPPCDNELKSEAIIEHLCASEFALRMKIKEVKKENGDKKIVPKKKKPLKLGPIKKKDLKKLVLYLKNGADCPCHQLDNLSHHFLIMGRKVKSQYLLTAIHKWDKKNKEFKNFMKKMKNHECPTFQSVFK

loss of Wnt antagonist function relative to SFRP-1 (TCF-Luciferase reporter) (% loss of function): 20
B5: SFRP-1 tyrosine 73 to phenylalanine mutant (receptor)
chain: B4 chain with Y42F

loss of Wnt3 antagonist activity relative to SFRP-1 (TCF-Luciferase reporter) (% loss of activity): 35
B6: SFRP-1 mutant with a total of 10 lysine residues in the hyaluronan domain changed into alanine (receptor)
chain: B4 chain with K197A, K198A, K199A, K200A, K203A, K208A, K209A, K210A, K213A, K214A

loss of Wnt3 antagonist activity relative to SFRP-1 (TCF-Luciferase reporter) (% loss of activity): 60
B7: SFRP-1 CRD mutant KKMVL to NMTKM (receptor)
chain: B4 chain with K43N, K44M, M45T, V46K, L47M

Wnt antagonist function compared to the wild type SFRP-1 (TCF-Luciferase reporter) (% of wild type SFRP-1): 40
B8: SFRP-1 tyrosine 73 to asparagine mutant (receptor)
chain: B4 chain with Y42N

loss of Wnt3 antagonist activity relative to SFRP-1 (TCF-Luciferase reporter) (% loss of activity): 45
B9: SFRP-1 CRD mutant … to … (receptor)
chain: B4 chain with H38K, N39S, V40L, G41P, Y42W, K43N, K44M, M45T, V46K, L47M

loss of Wnt3 antagonist activity relative to SFRP-1 (TCF-Luciferase reporter) (% loss of activity): 30
B10: SFRP-1 CRD mutant LLEHE (amino acids 81-85) to HLHHS (receptor)
chain: B4 chain with L50H, E52H, E54S

Wnt antagonist function compared to the wild type SFRP-1 (TCF-Luciferase reporter) (% of wild type SFRP-1): 40
B11: SFRP-1 tyrosine 73 to alanine mutant (receptor)
chain: B4 chain with Y42A

Wnt antagonist function compared to the wild type SFRP-1 (TCF-Luciferase reporter) (% of wild type SFRP-1): 40
B12: SFRP-1 tyrosine 73 to aspartate mutant (receptor)
chain: B4 chain with Y42D

loss of Wnt3 antagonist activity relative to SFRP-1 (TCF-Luciferase reporter) (% loss of activity): 15
B13: SFRP-1 hyaluronan-binding domain mutant, distal lysine residues to alanine (receptor)
chain: B4 chain with K208A, K209A, K210A, K213A, K214A

Wnt antagonist function compared to the wild type SFRP-1 (TCF-Luciferase reporter) (% of wild type SFRP-1): 40
B14: SFRP-1 tyrosine 73 to serine mutant (receptor)
chain: B4 chain with Y42S

loss of Wnt3 antagonist activity relative to SFRP-1 (TCF-Luciferase reporter): ~40 % loss of activity
B15: SFRP-1/SFRP-2 (1-248/238-295) chimera (receptor)
chain: SEYDYVSFQSDIGPYQSGRFYTKPPQCVDIPADLRLCHNVGYKKMVLPNLLEHETMAEVKQQASSWVPLLNKNCHAGTQVFLCSLFAPVCLDRPIYPCRWLCEAVRDSCEPVMQFFGFYWPEMLKCDKFPEGDVCIAMTPPNATEASKPQGTTVCPPCDNELKSEAIIEHLCASEFALRMKIKEVKKENGDKKIVPKKKKPLKLGPIKKKDLKKLVLWLKDSLQCTCEEMNDINAPYLVMGQKQGGELVITSVKRWQKGQREFKRISRSIRKLQC

loss of Wnt3 antagonist activity relative to SFRP-1 (TCF-Luciferase reporter): ~40 % loss of activity
B16: SFRP-1/SFRP-2(1-226)/(214-295) chimera (receptor)
chain: SEYDYVSFQSDIGPYQSGRFYTKPPQCVDIPADLRLCHNVGYKKMVLPNLLEHETMAEVKQQASSWVPLLNKNCHAGTQVFLCSLFAPVCLDRPIYPCRWLCEAVRDSCEPVMQFFGFYWPEMLKCDKFPEGDVCIAMTPPNATEASKPQGTTVCPPCDNELKSEAIIEHLCASEFALRMKIKEVKKENGDKKIVLETKSKTIYKLNGVSERDLKKSVLWLKDSLQCTCEEMNDINAPYLVMGQKQGGELVITSVKRWQKGQREFKRISRSIRKLQC

Wnt antagonist activity relative to full length SFRP-1 (TCF-Luciferase reporter, U2OS cells): ~80 % of full length SFRP-1 activity
B17: truncated SFRP-1 (Δ167-314) containing the CRD alone (receptor)
chain: SEYDYVSFQSDIGPYQSGRFYTKPPQCVDIPADLRLCHNVGYKKMVLPNLLEHETMAEVKQQASSWVPLLNKNCHAGTQVFLCSLFAPVCLDRPIYPCRWLCEAVRDSCEPVMQFFGFYWPEMLKCDKFPEGDVC

Wnt3 antagonist function relative to SFRP-1 (TCF-Luciferase reporter) (% less active): 60
B18: human SFRP-3 (receptor)
chain: AACEPVRIPLCKSLPWNMTKMPNHLHHSTQDNAILAIEQFEGLLGTHCSPDLLFFLCAMYAPICTIDFQHEPIKPCKSVCERARQGCEPILIKYRHSWPENLACEELPVYDRGVCISPEAIVTADGADFPMDSSNGNCRGASSERCKCKPIRATQKTYFRNNYNYVIRAKVKEIKTKCHDVTAVVEVKEILKSSLVNIPRDTVNLYTSSGCLCPPLNVNEEYIIMGYEDEERSRLLLVEGSIAEKWKDRLGKKVKRWDMKLRHLGLSKSDSSNSDSTQSQKSGRNSNPRQARN
